Data on one molecule can be found in doi:10.1101/2020.04.11.036434 (bioRxiv, 2020).

Test [1] deals with P-Rex2 (WT), recombinant full-length (UniProt Q70Z35 1-1606). The test can be described thus: pull-down.
The target in test [2] is T1, P-Rex2 DEP2-IP4P (residues 472-1606) (UniProt Q70Z35 472-1606).
T1 sequence: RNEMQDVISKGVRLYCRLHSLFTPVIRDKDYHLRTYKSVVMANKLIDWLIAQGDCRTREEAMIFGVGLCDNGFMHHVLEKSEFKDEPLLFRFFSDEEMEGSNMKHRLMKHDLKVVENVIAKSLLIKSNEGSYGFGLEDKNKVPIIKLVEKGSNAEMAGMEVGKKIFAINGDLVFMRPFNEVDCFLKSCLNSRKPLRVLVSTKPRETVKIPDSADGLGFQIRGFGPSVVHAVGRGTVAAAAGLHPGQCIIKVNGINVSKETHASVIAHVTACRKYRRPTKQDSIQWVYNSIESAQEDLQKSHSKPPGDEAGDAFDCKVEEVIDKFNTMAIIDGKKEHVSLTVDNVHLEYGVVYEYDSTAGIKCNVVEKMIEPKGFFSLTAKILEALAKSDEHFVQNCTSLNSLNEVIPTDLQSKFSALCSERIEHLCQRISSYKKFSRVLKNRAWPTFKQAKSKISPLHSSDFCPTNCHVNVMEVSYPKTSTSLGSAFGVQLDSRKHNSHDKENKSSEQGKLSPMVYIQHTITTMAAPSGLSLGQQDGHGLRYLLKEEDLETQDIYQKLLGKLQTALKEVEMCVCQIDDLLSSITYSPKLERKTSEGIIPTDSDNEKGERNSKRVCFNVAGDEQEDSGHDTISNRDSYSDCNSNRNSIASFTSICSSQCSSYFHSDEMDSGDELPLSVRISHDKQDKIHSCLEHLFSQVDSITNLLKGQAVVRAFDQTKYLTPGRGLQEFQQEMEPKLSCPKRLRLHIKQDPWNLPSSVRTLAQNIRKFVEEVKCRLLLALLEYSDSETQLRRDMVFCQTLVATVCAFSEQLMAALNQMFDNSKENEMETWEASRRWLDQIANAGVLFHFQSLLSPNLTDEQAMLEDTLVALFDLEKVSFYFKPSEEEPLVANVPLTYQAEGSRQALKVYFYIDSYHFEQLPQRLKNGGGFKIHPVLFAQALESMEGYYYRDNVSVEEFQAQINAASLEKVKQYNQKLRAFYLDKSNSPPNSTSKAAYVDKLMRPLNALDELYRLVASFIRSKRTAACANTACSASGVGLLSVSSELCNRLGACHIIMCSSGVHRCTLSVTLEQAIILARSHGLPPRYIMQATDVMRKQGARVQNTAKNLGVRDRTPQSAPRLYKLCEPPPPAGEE
The test can be described thus: SPR. (In general: In SPR one partner is held on a chip, and binding of the other changes the refractive index at the surface.)

B1: PTEN (WT), recombinant insect-cell purified (natural protein)
chain: not shown
Regarding B1, the binding result in test [1] and in test [2] was “binds” each time.
